Laboratory results published in article PMC2413427, “Free Brick1 Is a Trimeric Precursor in the Assembly of a Functional Wave Complex” (PLoS ONE, 2008).
Blank lines part the entries; values can stand above or below the molecule they belong to.

Assays:
[1] = target: human Brk1, in vitro translated, N-terminally tagged (PC-Brk1; the other copies in the self-association experiments are SBP-, Flag- or HA-Brk1) (human) (UniProt Q8WUW1); experiment: co-IP; PC-Brk1, SBP-Brk1 and HA-Wave2 co-translated in vitro; PC immunoprecipitation, then SBP precipitation or HA immunoprecipitation as a second step
[2] = target: the molecule itself; experiment: cross-linking; pooled SEC fractions of partially purified free untagged Brk1; glutaraldehyde 0.2% final or 2-fold dilutions, 50 mM Tris pH 8.0, 10 min, room temperature; Brk1 western blot
[3] = target: the molecule itself; experiment: co-IP; PC-, SBP-, Flag- and HA-Brk1 co-produced by in vitro translation with 35S-methionine; three sequential native precipitations (PC eluted with EDTA, SBP on streptavidin eluted with biotin, then Flag or HA); autoradiography

stoichiometry N [1]: 1
Molecule: HA-Wave2, in vitro translated (from UniProt Q9Y6W5 1-498) (natural protein)

B1: untagged Brk1 (free Brk1), partially purified from transfected 293T cells (natural protein, human, UniProt Q8WUW1 1-75, looked up)
chain: MAGQEDPVQREIHQDWANREYIEIITSSIKKIADFLNSFDMSCRSRLATLNEKLTALERRIEYIEARVTKGETLT
notes: Brick1 (Brk1, Hspc300), human, untagged cDNA; printed mass 8.7 kDa; that is not this construct; The fraction holds many other proteins but no Wave complex; also called Brick1; Hspc300; source: 293T, transfected with pCS2-Brk1, partially purified (35%-55% ammonium sulfate cut, SEC on superdex-200)
stoichiometry N [2]: 3

B2: human Brk1, in vitro translated, N-terminally tagged (PC-Brk1; the other copies in the self-association experiments are SBP-, Flag- or HA-Brk1) (natural protein, UniProt Q8WUW1 1-75, looked up)
chain: B1 chain
notes: Brick1 (Brk1, Hspc300), human; One molecule stands for the differently tagged copies of human Brk1 that were co-translated; also called SBP-Brk1; Flag-Brk1; source: in vitro translated (TnT, rabbit reticulocyte lysate, 35S-methionine), pCS2 plasmid; not shown: PC, N-terminal, kept
stoichiometry N [3]: 3
